We go through six molecules from article PMC11996885 (2025).

The target in this assay is FGFR2 on SNU16 cells (FGFR2 amplification) (human (endogenous in SNU16), UniProt P21802 22-821). Briefly: FACS; apparent Kd, SNU16 cells.
FGFR2 on SNU16 cells (FGFR2 amplification), sequence (P21802 22-821): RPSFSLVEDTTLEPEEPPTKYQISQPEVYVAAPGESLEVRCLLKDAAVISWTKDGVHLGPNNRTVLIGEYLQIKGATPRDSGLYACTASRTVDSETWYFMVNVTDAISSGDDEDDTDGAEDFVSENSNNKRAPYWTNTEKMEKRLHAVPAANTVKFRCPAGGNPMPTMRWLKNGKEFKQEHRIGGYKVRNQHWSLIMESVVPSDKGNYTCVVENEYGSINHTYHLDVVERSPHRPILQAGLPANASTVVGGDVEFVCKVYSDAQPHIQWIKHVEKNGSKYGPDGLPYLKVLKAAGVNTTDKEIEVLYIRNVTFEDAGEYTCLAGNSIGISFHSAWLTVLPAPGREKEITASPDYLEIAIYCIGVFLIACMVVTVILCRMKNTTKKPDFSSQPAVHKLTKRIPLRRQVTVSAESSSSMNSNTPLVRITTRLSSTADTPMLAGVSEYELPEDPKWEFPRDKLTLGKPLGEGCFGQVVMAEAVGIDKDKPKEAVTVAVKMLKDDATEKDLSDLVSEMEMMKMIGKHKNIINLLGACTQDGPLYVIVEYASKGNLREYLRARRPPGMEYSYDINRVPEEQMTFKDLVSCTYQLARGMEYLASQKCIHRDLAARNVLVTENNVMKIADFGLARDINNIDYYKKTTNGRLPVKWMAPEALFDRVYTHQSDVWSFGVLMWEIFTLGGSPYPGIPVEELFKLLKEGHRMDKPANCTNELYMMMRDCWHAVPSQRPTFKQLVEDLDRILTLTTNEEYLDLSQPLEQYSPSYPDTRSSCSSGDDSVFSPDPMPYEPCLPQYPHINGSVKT

B1: FGFR2 parental antibody A (antibody, V domains shown)
VH: EVQLLESGGGLVQPGGSLRLSCAASGFTFSSYAMSWVRQAPGKGLEWVSAISGSGTSTYYADSVKGRFTISRDNSKNTLYLQMNSLRAEDTAVYYCARVRYNWNHGDWFDPWGQGTLVTVSS
VL: QSVLTQPPSASGTPGQRVTISCSGSSSNIGNNYVSWYQQLPGTAPKLLIYENYNRPAGVPDRFSGSKSGTSASLAISGLRSEDEADYYCSSWDDSLNYWVFGGGTKLTVL
Take B1: the Kd came out at 0.76 nM.

B2: FGFR2 parental antibody C (antibody, V domains shown)
VH: QVQLVESGGGLVKPGGSLRLSCAASGFTFSSYALSWVRQAPGKGLEWVGRIRSKIDGGTTDYAAPVKGRFTISRDDSKNTLYLQMNSLKTEDTAVYYCARDRSPSDSSAFAIWGQGTLVTVSS
VL: DIELTQPPSVSVSPGQTASITCSGDNLGSQYVDWYQQKPGQAPVLVIYDDNDRPSGIPERFSGSNSGNTATLTISGTQAEDEADYYCQSWDSLSVVFGGGTKLTVL
Regarding B2, the Kd stood at 0.15 nM.

B3: FGFR2 parental antibody E (antibody, V domains shown)
VH: QVQLVQSGAEVKKPGSSVKVSCKASGYIFTTYNVHWVRQAPGQGLEWIGSIYPDNGDTSYNQNFKGRATITADKSTSTAYMELSSLRSEDTAVYYCARGDFAYWGQGTLVTVSS
VL: DIQMTQSPSSLSASVGDRVTITCKASQGVSNDYAWYQQKPGKAPKLLIYSASYRYTGVPSRFSGSGSGTDFTFTISSLQPEDIATYYCQQHSTTPYTFGQGTKLEIK
Regarding B3, the Kd came out at 1.77 nM.

B4: FGFR2 parental antibody D (antibody, V domains shown)
VH: EVQLVESGGGLVQPGGSLRLSCAASGFPFTSTGISWVRQAPGKGLEWVGRTHLGDGSTNYADSVKGRFTISADTSKNTAYLQMNSLRAEDTAVYYCARTYGIYDTYDMYTEYVMDYWGQGTLVTVSS
VL: DIQMTQSPSSLSASVGDRVTITCRASQDVDTSLAWYKQKPGKAPKLLIYSASFLYSGVPSRFSGSGSGTDFTLTISSLQPEDFATYYCQQSTGHPQTFGQGTKVEIK
Regarding B4, the Kd was 1.99 nM.

B5: FGFR2 parental antibody B (antibody, V domains shown)
VH: QIQLVQSGPELKKPGETVKISCKASGYTFTDFGMNWMKQAPGKGFKWMGWINTSTGESTYADDFKGRFAFSLETSASTAYLQINNLKNEDMATYFCARNSYYGGSYGYWGQGTTLTVSS
VL: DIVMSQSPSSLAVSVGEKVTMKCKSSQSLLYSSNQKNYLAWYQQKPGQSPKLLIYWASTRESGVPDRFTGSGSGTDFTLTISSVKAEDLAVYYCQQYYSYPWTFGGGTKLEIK
Regarding B5, the Kd worked out at 32.8 nM.

B6: FGFR2 parental antibody F (antibody, V domains shown)
VH: QVQLVQSGAEVKKPGESLKISCKGSGYSFTNYYIHWVRQMPGKGLEWMGAIYPDNSDTTYSPSFQGQVTISADKSISTAYLQWSSLKASDTAMYYCARGADIWGQGTLVTVSS
VL: DIQMTQSPSSLSASVGDRVTITCRASQDIDPYLSNWYQQKPGKAPKLLIYDASNLQSGVPSRFSGSGSGTDFTLTISSLQPEDFATYYCQQTTSHPYTFGQGTKVEIK
For B6, the Kd came to 9.4 nM.
